Assay results as given in patent US20240084027A1 (BEIJING MABWORKS, published 2024).
Where two headings read alike, the source gives them in different places.

T1: monkey CD40 on HEK293A/monkey CD40 cells (monkey, UniProt P25942 21-277 (human entry))
T1 chain: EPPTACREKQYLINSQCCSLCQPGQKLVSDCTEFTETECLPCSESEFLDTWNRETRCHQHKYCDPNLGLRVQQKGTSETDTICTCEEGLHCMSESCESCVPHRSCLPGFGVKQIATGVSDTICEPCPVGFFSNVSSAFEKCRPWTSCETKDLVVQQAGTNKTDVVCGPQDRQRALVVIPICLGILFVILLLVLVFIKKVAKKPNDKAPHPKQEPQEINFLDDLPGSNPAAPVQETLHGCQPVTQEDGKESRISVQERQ

B1: anti-CD40 antibody 7B4VH2VL2 (antibody, V domains shown)
VH: QVQLQESGPGLVKPSDTLSLTCAVSGYSITTNYYWNWIRQPPGKGLEWMGYIKYDGSNNYNPSLKNRITISVDTSKNQFSLKLSSVTAVDTAVYYCARLDYWGQGTLVTVSS
VL: DVVLTQSPLSLPVTLGQPASISCRSSQSLENSNGNTFLNWFQQRPGQSPRLLIYKVSNRFSGVPDRFSGSGSGTDFTLKISRVEAEDVGVYYCLQVTHVPFTFGQGTKLEIK
notes: also called the monospecific anti-CD40 antibody; 714VH2VL2 [sic]
B2: MBS307-6 (bispecific antibody, human IgG1, kappa, L234A L235A)
heavy 1: QVQLQESGPGLVKPSDTLSLTCAVSGYSITTNYYWNWIRQPPGKGLEWMGYIKYDGSNNYNPSLKNRITISVDTSKNQFSLKLSSVTAVDTAVYYCARLDYWGQGTLVTVSSASTKGPSVFPLAPSSKSTSGGTAALGCLVKDYFPEPVTVSWNSGALTSGVHTFPAVLQSSGLYSLSSVVTVPSSSLGTQTYICNVNHKPSNTKVDKKVEPKSCDKTHTCPPCPAPEAAGGPSVFLFPPKPKDTLMISRTPEVTCVVVDVSHEDPEVKFNWYVDGVEVHNAKTKPREEQYNSTYRVVSVLTVLHQDWLNGKEYKCKVSNKALPAPIEKTISKAKGQPREPQVYTLPPSREEMTKNQVSLWCLVKGFYPSDIAVEWESNGQPENNYKTTPPVLDSDGSFFLYSKLTVDKSRWQQGNVFSCSVMHEALHNHYTQKSLSLSPGK
heavy 2: QVQLQESGPGLVKPSDTLSLTCAVSGYSITTNYYWNWIRQPPGKGLEWMGYIKYDGSNNYNPSLKNRITISVDTSKNQFSLKLSSVTAVDTAVYYCARLDYWGQGTLVTVSSASTKGPSVFPLAPSSKSTSGGTAALGCLVKDYFPEPVTVSWNSGALTSGVHTFPAVLQSSGLYSLSSVVTVPSSSLGTQTYICNVNHKPSNTKVDKKVEPKSCDKTHTCPPCPAPEAAGGPSVFLFPPKPKDTLMISRTPEVTCVVVDVSHEDPEVKFNWYVDGVEVHNAKTKPREEQYNSTYRVVSVLTVLHQDWLNGKEYKCKVSNKALPAPIEKTISKAKGQPREPQVYTLPPSREEMTKNQVSLSCAVKGFYPSDIAVEWESNGQPENNYKTTPPVLDSDGSFFLVSKLTVDKSRWQQGNVFSCSVMHEALHNHYTQKSLSLSPGSGGGGSGGGGSQVQLQESGPGLVKPSQTLSLTCTVSGGSITSDYWNWIRQHPGNKLEYMGYISYTGSTYYNPSLKSRISITRDTSKNQFSLKLSSVTTADTAVYYCARYRDWDVRAMDYWGQGTTVTVSSGGGGSGGGGSGGGGSGGGGSDIVMTQSPDSLAVSLGEKVTMNCKSSQSLLISGNQKNFLTWYQQKPGQPPKLLIYWASTRESGVPDRFSGSGSGTDFTLTISSLQAEDEAVYYCQNDFGFPFTFGQGTKLTAK
light: DVVLTQSPLSLPVTLGQPASISCRSSQSLENSNGNTFLNWFQQRPGQSPRLLIYKVSNRFSGVPDRFSGSGSGTDFTLKISRVEAEDVGVYYCLQVTHVPFTFGQGTKLEIKRTVAAPSVFIFPPSDEQLKSGTASVVCLLNNFYPREAKVQWKVDNALQSGNSQESVTEQDSKDSTYSLSSTLTLSKADYEKHKVYACEVTHQGLSSPVTKSFNRGEC
notes: Asymmetric: anti-CD40 antibody, knob chain without scFv, hole chain with the anti-PD-L1 scFv of 56E5VH5VL4; also called MBS307-6-1 + MBS307-6-2
B3: MBS307-7 (bispecific antibody, human IgG1, kappa, L234A L235A)
heavy: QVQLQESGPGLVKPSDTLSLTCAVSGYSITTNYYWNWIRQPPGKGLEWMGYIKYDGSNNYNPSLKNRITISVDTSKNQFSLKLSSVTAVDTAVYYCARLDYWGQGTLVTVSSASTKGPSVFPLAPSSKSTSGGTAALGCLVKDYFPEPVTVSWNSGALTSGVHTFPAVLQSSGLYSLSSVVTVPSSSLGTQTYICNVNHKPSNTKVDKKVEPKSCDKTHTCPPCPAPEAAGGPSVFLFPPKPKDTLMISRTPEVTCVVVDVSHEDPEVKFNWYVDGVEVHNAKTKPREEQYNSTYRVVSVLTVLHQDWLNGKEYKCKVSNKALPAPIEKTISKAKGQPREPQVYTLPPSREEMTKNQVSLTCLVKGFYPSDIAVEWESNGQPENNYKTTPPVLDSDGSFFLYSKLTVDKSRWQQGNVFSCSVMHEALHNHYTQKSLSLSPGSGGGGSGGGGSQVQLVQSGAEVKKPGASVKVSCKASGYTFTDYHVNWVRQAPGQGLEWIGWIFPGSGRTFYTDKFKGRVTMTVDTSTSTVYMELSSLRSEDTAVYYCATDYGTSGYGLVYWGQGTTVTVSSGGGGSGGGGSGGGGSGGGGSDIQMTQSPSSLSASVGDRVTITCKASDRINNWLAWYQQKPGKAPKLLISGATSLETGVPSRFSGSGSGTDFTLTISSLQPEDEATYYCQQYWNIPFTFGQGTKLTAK
light: B2 light
notes: Symmetric: full-length anti-CD40 antibody with the anti-PD-L1 scFv of 3C2VH6VL5 on each heavy chain

Legend:
[1] = molecular target: T2, human CD40 on HEK293A/human CD40 cells (human, UniProt P25942 21-277); assay: cell-based or functional assay
[2] = molecular target: T2, human CD40 on HEK293A/human CD40 cells; assay: FACS on HEK293A/human CD40 cells
Procedure: (§1) The bispecific antibodies as prepared above were tested for their binding capability to cell surface human, monkey and mouse CD40 proteins by FACS, using the HEK293A cells prepared in Example 1 that stably expressed human, monkey or mouse CD40. Briefly, a 96-well plate was seeded with 10⁵ HEK293A cells in 50 μl PBS, and then added with 100 μl serially diluted anti-CD40 antibody 714VH2VL2 and the bispecific antibodies of the disclosure (starting concentration at 40 μg/ml). After incubation at 4° C. for 1 h, the plate was washed by PBST for 3 times. The plate was added with 1:500 diluted APC-goat anti-mouse IgG (Cat #:405308, BioLegen, USA), incubated at 4° for 1 h, washed with PBS for 3 times, and subjected to fluorescence measurement in a FACS machine (BD).
(§2) Following the protocols in Example 4 and Example 5, the bi- or multi-specific antibodies of the disclosure were tested for their binding capability to human PD-L1 and human CD40 proteins by FACS using the HEK293A cells prepared in Example 1 that stably expressed human PD-L1 or human CD40.

[3] = molecular target: T1, monkey CD40 on HEK293A/monkey CD40 cells; assay: FACS on HEK293A/monkey CD40 cells
Procedure: as §1

[4] = molecular target: T2, human CD40 on HEK293A/human CD40 cells; assay: FACS on HEK293A/human CD40 cells; remark: listed apart in the source
Procedure: as §1, §2

[5] = molecular target: T2, human CD40 on HEK293A/human CD40 cells; assay: cell-based or functional assay; remark: listed apart in the source
[6] = molecular target: T2, human CD40 on HEK293A/human CD40 cells; assay: cell-based or functional assay; remark: listed apart in the source
[7] = molecular target: T2, human CD40 on HEK293A/human CD40 cells; assay: FACS on HEK293A/human CD40 cells; remark: listed apart in the source
Procedure: as §1

[8] = molecular target: T3, human CD40-his protein (human, UniProt P25942 21-193); assay: SPR (BIAcore 8K), human CD40-his coupled to CM5 chip, antibody injected
T3 construct: Bought protein; also called human CD40 protein; CD40 molecules; not shown: his tag
Description: (§3) Using BIAcore™ 8K instrument (GE Life Sciences, US), the binding affinity of the bi- or multi-specific antibodies to human CD40 and PD-L1 was quantitatively measured. Briefly, 100-200 response units (RU) of human CD40-his protein (Cat #:10774-1108H, Sino Biological, CN) or human PD-L1-his protein (Cat #:10084-H08H, Sino Biological, CN) were coupled to CM5 biosensor chips (Cat #:BR-1005-30, GE Life Sciences. USA). The un-reacted groups were then blocked with 1 M ethanolamine. Serially diluted antibodies at concentrations ranging from 0.3 μM to 10 μM were injected into the SPR running buffer (HBS-EP buffer, pH7.4, Cat #:BR-1006-69, GE Life Sciences, USA) at 30 μL/min. The binding affinity was calculated with the RUs of blank controls subtracted, and the association rate (kₐ) and dissociation rate (kd) were determined using the one-to-one Langmuir binding model (BIA Evaluation Software, GE Life Sciences, USA). The equilibrium dissociation constant KD was calculated as the kd/kₐ ratio.

[9] = molecular target: T4, human PD-L1-his protein (human, UniProt Q9NZQ7 19-238); assay: SPR (BIAcore 8K), human PD-L1-his coupled to CM5 chip, antibody injected
T4 construct: extracellular domain; also called human PD-L1 (ECD)-his; human PD-L1 protein; not shown: his tag
Description: as §3

[10] = molecular target: T5, human PD-L1 on HEK293A/human PD-L1 cells (human, UniProt Q9NZQ7 19-290); assay: FACS on HEK293A/human PD-L1 cells
Procedure: as §1, §2

[11] = molecular target: T5, human PD-L1 on HEK293A/human PD-L1 cells; assay: FACS blocking assay on HEK293A/human PD-L1 cells; blocked ligand PD-1-Fc
Procedure: The bispecific antibodies were tested for their blocking activity on PD-1-PD-L1 binding by FACS using the HEK293A cells stably expressing human PD-L1 molecules as prepared in Example 1. Briefly, a 96-well plate was seeded with 10⁵ HEK293A/human PD-L1 cells in 100 μl cell culture medium, and then added with 50 μl serially diluted anti-PD-L1 antibody 56E5VH5VL4 or MBS307-3 molecules. After incubation at 4° C. for 1 h. the plate was washed with PBST for 3 times, added with 100 μl 200 μg/ml PD-1-Fc fusion proteins (Cat #:10377-10211, Sino Biological, CN), incubated at 4° C. for 1 h, washed with PBST for 3 times, and added with 1:500 diluted PE-goat anti-human IgG (Cat #:PAI-86078, Thermofisher, USA). After incubation at 4° C. for 1 h, the plate was washed with PBST for 3 times and measured for fluorescence using a FACS machine (BD).
Following the protocol of Example 7, the bi- or multi-specific antibodies were tested for their capability to block PD-1-PD-L1 binding by FACS, using the HEK293A cells prepared in Example 1 that stably expressed human PD-L1 molecules.

T4 sequence (Q9NZQ7 19-238): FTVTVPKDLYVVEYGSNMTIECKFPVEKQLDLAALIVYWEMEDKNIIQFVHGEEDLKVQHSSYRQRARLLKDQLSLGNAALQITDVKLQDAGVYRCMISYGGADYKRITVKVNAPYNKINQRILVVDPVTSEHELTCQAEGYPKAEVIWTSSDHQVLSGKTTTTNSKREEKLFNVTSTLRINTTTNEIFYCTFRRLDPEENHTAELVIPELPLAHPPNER
T5 sequence (Q9NZQ7 19-290 limits assumed): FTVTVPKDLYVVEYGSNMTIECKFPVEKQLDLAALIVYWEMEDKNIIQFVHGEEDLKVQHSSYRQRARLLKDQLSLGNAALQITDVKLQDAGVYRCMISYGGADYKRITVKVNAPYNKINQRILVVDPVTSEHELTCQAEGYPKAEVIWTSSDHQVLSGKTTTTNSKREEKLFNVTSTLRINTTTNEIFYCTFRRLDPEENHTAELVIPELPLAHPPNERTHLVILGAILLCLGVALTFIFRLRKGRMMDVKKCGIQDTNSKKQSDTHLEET

Binder | EC50 (read off the curve); HEK-Blue/CD40 reporter, OD630, plate coated with human PD-L1-his [1] | EC50 (read off the curve) [2] | EC50 (read off the curve) [3] | EC50 (read off the curve) [4] | EC50 (read off the curve); HEK-Blue/CD40 reporter, OD630, plate coated with human PD-L1-his [5] | EC50 (read off the curve); HEK-Blue/CD40 reporter, OD630, plate coated with human PD-L1-his [6] | EC50 (read off the curve) [7] | Kd [8] | Kd [9] | EC50 (read off the curve) [10] | IC50 (read off the curve) [11]
B1 | ~0.1 mg/L | ~0.03 mg/L | ~0.04 mg/L | ~0.04 mg/L | ~0.04 mg/L | ~0.1 mg/L | ~0.05 mg/L |  |  |  | 
B2 |  |  |  | ~0.07 mg/L |  | ~0.02 mg/L |  | 3.11 nM | 42 nM | ~0.6 mg/L | ~1 mg/L
B3 | ~0.1 mg/L | ~0.06 mg/L |  |  |  |  |  | 1.43 nM | 11.9 nM |  | 
